Assay [1] deals with T1, human fibrinogen (human, UniProt P02671 20-629; P02675 31-491; P02679 27-437).
T1 sequence 1: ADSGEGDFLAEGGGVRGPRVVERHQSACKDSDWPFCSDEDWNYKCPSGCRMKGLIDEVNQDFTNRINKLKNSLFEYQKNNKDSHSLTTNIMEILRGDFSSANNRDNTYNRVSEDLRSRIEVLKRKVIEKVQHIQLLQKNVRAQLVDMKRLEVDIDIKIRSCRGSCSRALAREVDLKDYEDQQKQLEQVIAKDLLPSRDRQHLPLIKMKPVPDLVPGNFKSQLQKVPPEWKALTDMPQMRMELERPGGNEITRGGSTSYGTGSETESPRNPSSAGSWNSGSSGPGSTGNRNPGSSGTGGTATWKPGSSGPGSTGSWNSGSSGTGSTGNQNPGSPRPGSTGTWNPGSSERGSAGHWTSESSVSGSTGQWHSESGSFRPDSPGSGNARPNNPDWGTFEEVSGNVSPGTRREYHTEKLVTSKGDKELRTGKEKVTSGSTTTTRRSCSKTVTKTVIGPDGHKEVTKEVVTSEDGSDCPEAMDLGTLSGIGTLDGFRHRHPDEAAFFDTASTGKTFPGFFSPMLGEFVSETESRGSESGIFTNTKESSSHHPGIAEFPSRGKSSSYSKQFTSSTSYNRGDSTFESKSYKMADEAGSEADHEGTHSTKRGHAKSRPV
T1 sequence 2: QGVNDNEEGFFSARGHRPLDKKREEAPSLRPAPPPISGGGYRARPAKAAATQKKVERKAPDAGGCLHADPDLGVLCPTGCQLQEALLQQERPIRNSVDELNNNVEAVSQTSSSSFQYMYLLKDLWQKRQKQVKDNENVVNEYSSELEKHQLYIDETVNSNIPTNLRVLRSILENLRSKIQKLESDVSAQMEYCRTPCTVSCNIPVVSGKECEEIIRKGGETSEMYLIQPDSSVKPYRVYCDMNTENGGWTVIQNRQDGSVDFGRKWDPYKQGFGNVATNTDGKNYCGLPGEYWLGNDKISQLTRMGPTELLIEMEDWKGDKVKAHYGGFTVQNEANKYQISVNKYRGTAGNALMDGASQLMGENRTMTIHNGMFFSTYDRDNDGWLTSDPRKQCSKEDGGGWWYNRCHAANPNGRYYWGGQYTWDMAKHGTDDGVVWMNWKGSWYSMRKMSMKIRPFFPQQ
T1 sequence 3: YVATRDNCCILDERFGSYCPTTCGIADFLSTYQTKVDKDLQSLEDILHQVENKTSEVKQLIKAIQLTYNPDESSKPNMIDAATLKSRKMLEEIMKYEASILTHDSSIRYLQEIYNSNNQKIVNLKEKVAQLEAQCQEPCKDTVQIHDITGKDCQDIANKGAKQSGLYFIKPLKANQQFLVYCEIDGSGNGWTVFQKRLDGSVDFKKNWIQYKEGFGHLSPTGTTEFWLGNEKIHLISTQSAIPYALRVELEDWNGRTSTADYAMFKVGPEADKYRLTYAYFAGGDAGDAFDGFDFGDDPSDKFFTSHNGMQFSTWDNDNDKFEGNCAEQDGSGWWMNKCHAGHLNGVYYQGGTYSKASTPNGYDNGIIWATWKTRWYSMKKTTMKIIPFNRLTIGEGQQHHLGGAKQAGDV
In words: ELISA, ECM protein coated, His-tag protein detected with anti-His6 mAb. For orientation: In an ELISA, binding on a coated surface is turned into a signal by an enzyme label.
Method: Plates were washed once with PBS and blocked with 1% BSA in PBS for 1 h. Fifty □l of 5 and 10 µM concentrations of purified His-tag proteins in the blocking buffer were added and incubated at ambient temperature for 2 h. Plates were washed three times with 0.05% Tween20 in PBS and incubated 2 h with 1:3000 dilution of His₆-tag monoclonal antibody (Amersham Biosciences Corp., Piscataway, N.J.) in blocking buffer. After three washes, 1:3000 dilution of alkaline phosphatase-conjugated anti-mouse antibody in blocking buffer was added to the wells and incubated 2 h. Finally, signal was detected with nitrobluetetrazolium (NBT) and 5-bromo-4-chloro-3-indolyl-phosphate (BCIP) in 0.1 M NaHCO₃, 1 mM MgCl₂, pH 9.8. Absorbance at 405 nm was measured with an ELISA reader

In assay [2] the target is T1, human fibrinogen. The assay can be described thus: screen of binding to ECM proteins; format not detailed for EF1269.
Assay [3] has as its target T1, human fibrinogen. The assay can be described thus: ELISA, ECM protein coated, recombinant protein detected with mouse antiserum; positive if signal 2.5x background.

B1: EF2224 A domain (EF2224A), N-terminal His6-tag fusion protein (other)
chain: QEVTSDAEKTVEKDGLKVIGKIEDTSSQEDIKTVTYEVTNTRDVPIKDLILKQKNTNDSPIKFVLDTLSEERGPTSLEEQAKVETNEKDQTTDIKLLNLQPNSTRKITINGQITTKASNKLLVSVLIEDNEKGTLVIDLPSKDILADKESVSKEKQETSETKVENQANETASSTNEMTATTSNETKPEAGKAIESIQETALTQATESPEQPPLKAQPTGPLVPPTPGRGFNTPIYQSVHKGELFSTGNTNLKIANENTAAAQTFLNTRGASSGYAINNFPLEFADVDNDPNTYNSSRAYIDLNGAKEIAWAGLFWSASRYKGPAYGTNLSDEEISAPVQFTTPNGTVQRVSPQRYHRIDQDATNPGQRFGYNNTGFSNYADVTSILQGDKSATGSYTLADIPMTSSLNGQYQYYNFSGWSLFVVTKDQASKSRAFSIYYGARGNAAGTNNEFTMSNFLTAKQGNLDPIVTWFTVQGDKYWTGDNAQIKNSAGTWVNISNTLNPVNNAMNATVTDNDEHMVDKYPGKFAPDHPNFLDIDIDRMAIPEGVLNAGQNQINFRTTSSGDDYSTNAIGFAVNAETPEFEIKKEIVEPKETYKVGETITYRVSLKNTKADSEAINSVSKDALDGRLNYLPGSLKIISGPNSGEKTDASGDDQAEYDETNKQIIVRVGNGATATQGGSYKADTAETIYEFKARINERAKANELVPNSATVEAVDILTSAKVNETSNIVEAKIADEQVT
notes: Expressed in E. coli from pQE-30 and purified; not shown: N-terminal His6-tag from vector pQE-30
Consider B1, for which the binding result in assay [1] is recorded as “binds”.

B2: EF1269 A domain (EF1269A), N-terminal His6-tag fusion protein (other)
chain: ETGYAQTEPTSTSETNQISATPNVVPRKQVGNIVTAIQLTDKEGNPLGTINQYTDIYLRIEFNLPDNTVNSGDTSVITLPEELRLEKNMTFNVVDDTGTVVAIAQTDVANKTVTLTYTDYVENHANISGSLYFTSLIDFENVENESKIPIYVTVEGEKIFAGDLDYQGEGDDVNEKFSKYSWFIEDDPTEIYNVLRINPTGQTYTDLEVEDVLKTESLSYMKDTMKIERGQWTLDGNAIWQFTPEEDITDQLAVQYGPDDRNFSVHFGNIGTNEYRITYKTKIDHLPEKGETFTNYAKLTENQTVVEEVEVSRVSQTGGGEANGEQYVVEIHKEDEAGQRLAGAEFELIRNSTNQTVAKITTDQNGTAIVKGLLKDNYTLVETKAPTGYQLSQNKIPITPEDFGKNLVALKTVVNHKISYQPVAASFLAGKVLLGKPLKDAEFQFELLDEKGTVLETVSNDTLGKIQFSPLTFETPGNYQYTIREVNTQQTGVSYDTHNLQVQVTVEALLGNLVATTQYDGGQVFTNHYTPEKPIESTTPPTSGTTDTTTNSTTETTSITIEKQAIRNKE
notes: not shown: N-terminal His6-tag from vector pQE-30
Regarding B2, the binding result in assay [2] is listed as “no binding”.

B3: EF0089 A domain (EF0089A), N-terminal His6-tag fusion protein (other)
chain: EEVNSDGQLTLGEVKQTSQQEMTLALQGKAQPVTQEVVVHYSANVSIKAAHWAAPNNTRKIQVDDQKKQIQIELNQQALADTLVLTLNPTATEDVTFSYGQQQRALTLKTGTDPTESTAITSSPAASANEGSTEEASTNSSVPRSSEETVASTTKAIESKTTESTTVKPRVAGPTDISDYFTGDETTIIDNFEDPIYLNPDGTPATPPYKEDVTIHWNFNWSIPEDVREQMKAGDYFEFQLPGNLKPNKPGSGDLVDAEGNVYGTYTISEDGTVRFTFNERITSESDIHGDFSLDTHLNDSDGRGPGDWVIDIPTQEDLPPVVIPIVPDTEQQIDKQGHFDRTPNPSAITWTVDINQAMKDQTNPTVTETWPTGNTFKSVKVYELVMNLDGTIKEVGRELSPDEYTVDKNGNVTIKGDTNKAYRLEYQTTIDEAVIPDGGGDVPFKNHATLTSDNNPNGLDAEATVTATYGKMLDKRNIDYDEANQEFTWEINYNYGEQTIPKDQAVITDTMGDNLTFEPDSLHLYSVTFDDKGNEVVGAELVEGKDYKVVINGDGSFAIDFLHDVTGAVKIDYKTKVDGIVEGDVAVNNRVDVGTGQHSEDDGTASQQNIIKNTGAVDYQNSTIGWTLAVNQNNYLMENAVITDTYEPVPGLTMVPNSLVVKDTTTGAQLTLGKDFMVEITRNADGETGFKVSFIGAYAKTSDAFHITYTTFFDVTELDANNPALDHYRNTAAIDWTDEAGNNHHSEDSKPFKPLPAFDLNAQKSGVYNAVTKEITWTIAVNLSNNRLVDAFLTDPILTNQTYLAGSLKVYEGNTKPDGSVEKVKPTQPLTDITMEEPSEKNQNTWRVDFPNDSRTYVIEFKTSVDEKVIEGSASYDNTASYTNQGSSRDVTGKVSIQHGGESVKKGGEYHKDDPDHVYWHVMINGAQSVLDDVVITDTPSPNQVLDPESLVIYGTNVTEDGTITPDKSVILEEGKDYTLEVTTDNETGQQKIVVKMAHIEAPYYMEYRSLVTSSAAGSTDTVSNQVSITGNGSEVVHGDDNGDVVVDIDHSGGHATGTKGKIQLKKTAMDETTILAGAHFQIWDQAKTQVLREGTVDATGVITFGG
notes: as for B1
In the case of B3, the binding result in assay [1] is “binds”.

B4: EF1093 A domain (recombinant EF1093), N-terminal His6-tag fusion protein (other)
chain: EENGESAQLVIHKKKMTDLPDPLIQNSGKEMSEFDKYQGLADVTFSIYNVTNEFYEQRAAGASVDAAKQAVQSLTPGKPVAQGTTDANGNVTVQLPKKQNGKDAVYTIKEEPKEGVVAATNMVVAFPVYEMIKQTDGSYKYGTEELAVVHIYPKNVVANDGSLHVKKVGTAENEGLNGAEFVISKSEGSPGTVKYIQGVKDGLYTWTTDKEQAKRFITGKSYEIGENDFTEAENGTGELTVKNLEVGSYILEEVKAPNNAELIENQTKTPFTIEANNQTPVEKTVKNDTSKVDKTTPSLDGKDVAIGEKIKYQISVNIPLGIADKEGDANKYVKFNLVDKHDAALTFDNVTSGEYAYALYDGDTVIAPENYQVTEQANGFTVAVNPAYIPTLTPGGTLKFVYFMHLNEKADPTKGFKNEANVDNGHTDDQTPPTVEVVTGGKRFIKVDGDVTATQALAGASFVVRDQNSDTANYLKIDETTKAATWVKTKAEATTFTTTADGLVDITGLKYGTYYLEETVAPDDYVLLTNRIEFVVNEQSYGTTENLVSPEKVPNKHK
notes: as for B2
In the case of B4, in assay [3], the binding result is “binds”.
